From FireProtDB (doi:10.1016/s0022-2836(02)00915-4)
Values joined by “and” are separate entries in the source; they are usually repeats but may differ in a detail not shown here. Equal values may be shown once.

B1: Protein GrpE, P09372 (parent)
chain: MSSKEQKTPEGQAPEEIIMDQHEEIEAVEPEASAEQVDPRDEKVANLEAQLAEAQTRERDGILRVKAEMENLRRRTELDIEKAHKFALEKFINELLPVIDSLDRALEVADKANPDMSAMVEGIELTLKSMLDVVRKFGVEVIAETNVPLDPNVHQAIAMVESDDVAPGNVLGIMQKGYTLNGRTIRAAMVTVAKAKA

Variants of: B1
Settings: Escherichia coli (strain K12); pH 6.8; Thermal; CD; potassium phosphate 10 mM; transition: 3; reversible: yes; structure 1DKG; whole UniProt chain shown

Row | Variant | change of melting temperature, mutant - wild type (higher = more stable) | Tm [°C]
1 | G122D | -3 °C and 0 °C and -2 °C | 
2 | E53G | -2 °C | 81
